The values below come from patent EP2112166B1.

In test [1] the target is CTLA-4-Ig(G4) (Repligen) (UniProt P16410). Description: competition ELISA: CTLA-4-Ig(G4) binding to coated B7.1-Ig(G1).
In test [2] the target is CTLA-4-IgG1 fusion protein (made in-house) (human) (UniProt P16410). Description: BIAcore; CTLA-4-Ig on chip, 878.7 RU.
The target is the same in test [3]. In words: BIAcore; CTLA-4-Ig on chip, 504.5 RU.
The target of test [4] is CTLA-4-Ig(G4) (Repligen) (UniProt P16410). In words: competition ELISA: CTLA-4-Ig(G4) binding to coated B7.2-Ig(G1).
Test [5] deals with CTLA-4-IgG1 fusion protein (made in-house) (human) (UniProt P16410). In words: BIAcore; CTLA-4-Ig on chip, 457.2 RU.

B1: 4.10.2 antibody (antibody, from another filing, human IgG2, V domains shown)
VH: GVVQPGRSLRLSCVASGFIFSSHGIHWVRQAPGKGLEWVAVIWYDGRNKDYADSVKGRFTISRDNSKNTLYLQMNSLRAEDTAVYYCARVAPLGPLDYWGQGTLVTVSS
VL: SPGTLSLSPGERATLSCRASQSISSNFLAWYQQKPGQAPRLLIYRPSSRATGIPDSFSGSGSGTDFTLTISRLEPEDFALYYCQQYGTSPFTFGPGTKVDIKR
For B1, the IC50 in the test with CTLA-4-Ig(G4) (Repligen) [1] was 3.39 nM. Besides, in test [2], the Ka came out at 3.9e+09 M⁻¹, the Kd came out at 0.254 nM, the dissociation rate constant (koff) stood at 0.000253 s⁻¹ and the kon was 1e+06 M⁻¹ s⁻¹. In test [3], this molecule showed a Ka of 2.2e+09 M⁻¹, a Kd of 0.455 nM, an off-rate (koff) of 0.00043 s⁻¹ and an association rate constant (kon) of 940000 M⁻¹ s⁻¹. In addition, the 50% inhibitory concentration (IC50) with CTLA-4-Ig(G4) (Repligen) [4] stood at 1.5 nM. Besides, in test [5], the Ka came to 1.4e+09 M⁻¹, the Kd is 0.721 nM, the koff turned out to be 0.000505 s⁻¹ and the on-rate constant (kon) was 700000 M⁻¹ s⁻¹.
